From article PMC314469, “Protein Interaction Networks by Proteome Peptide Scanning” (PLoS Biology, 2004)

Molecular target: T1, amphyphisin SH3 (AMPH_HUMAN), P49418
T1 chain: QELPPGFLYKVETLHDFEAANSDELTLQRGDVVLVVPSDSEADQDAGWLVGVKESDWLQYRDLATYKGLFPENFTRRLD
Test: SPOT array
With LPVSLTRPPKLVLH [Q9Y2E6 378-391] the normalised SPOT signal, Boehringer light units (BLU); mean over the file's lines of this peptide was 121.
LPKGLGRPGKGHYW [Q12946 84-97] showed a normalised SPOT signal, Boehringer light units (BLU); mean over the file's lines of this peptide of 207.
LPHWLRRPVYSLYI [Q9UG56 133-146] was tested, and the normalised SPOT signal, Boehringer light units (BLU); mean over the file's lines of this peptide was 49.7.
LPPKPARPPAVSPA [O60885 879-893] was tested, and the normalised SPOT signal, Boehringer light units (BLU); mean over the file's lines of this peptide was 215.
In the case of LPEVPEKPPAGESV [Q9NVI4 527-541], the normalised SPOT signal, Boehringer light units (BLU); mean over the file's lines of this peptide is reported as 39.6.
For APQPPGRPPTPGPP [Q14957 973-987], the normalised SPOT signal, Boehringer light units (BLU); mean over the file's lines of this peptide was 307.
LPPDIERPYKAEPL [Q9Y4U3 288-301] was tested, and the normalised SPOT signal, Boehringer light units (BLU); mean over the file's lines of this peptide was 75.1.
Binder LLYTLRRPYFRKME [P36888 164-177] has a normalised SPOT signal, Boehringer light units (BLU); mean over the file's lines of this peptide of 41.1.
Work on LLSQLGRPFREYEL [Q9C095 450-463] yielded a normalised SPOT signal, Boehringer light units (BLU); mean over the file's lines of this peptide of 204.
LPETFRRPQIDPAV [Q9UJL8 67-80] showed a normalised SPOT signal, Boehringer light units (BLU); mean over the file's lines of this peptide of 23.1.
LNKYLSRPKRFEVA [Q9Y648 264-277] gave a normalised SPOT signal, Boehringer light units (BLU); mean over the file's lines of this peptide of 71.8.
LNRGPSRPRRQAGR [Q9NQA3 32-45] showed a normalised SPOT signal, Boehringer light units (BLU); mean over the file's lines of this peptide of 6720.
LPENFRRPQTDQAV [Q9H8X4 102-115] gave a normalised SPOT signal, Boehringer light units (BLU); mean over the file's lines of this peptide of 20.2.
APPRLARPPRFYEA [Q9HAH7 279-292] gave a normalised SPOT signal, Boehringer light units (BLU); mean over the file's lines of this peptide of 702.
With LPLPPARPPVLHSS [O95098 58-72] the normalised SPOT signal, Boehringer light units (BLU); mean over the file's lines of this peptide was 1580.
LPPLPKRPALEKTN [Q9NR56 294-307] showed a normalised SPOT signal, Boehringer light units (BLU); mean over the file's lines of this peptide of 160.
With LPLPPPRPPLLSAR [Q9P0P4 137-151] the normalised SPOT signal, Boehringer light units (BLU); mean over the file's lines of this peptide was 2320.
Binder LQFRIRRPRPPARG [Q96QS4 5-18] has a normalised SPOT signal, Boehringer light units (BLU); mean over the file's lines of this peptide of 84.3.
Work on LLPALRRPSRASSA [O95327 190-203] yielded a normalised SPOT signal, Boehringer light units (BLU); mean over the file's lines of this peptide of 5020.
AAPPPAKPPPPPQP [O15399 900-914] was tested, and the normalised SPOT signal, Boehringer light units (BLU); mean over the file's lines of this peptide was 41.3.
LPRSPPRPPRLWSF [Q9UKB5 52-66] showed a normalised SPOT signal, Boehringer light units (BLU); mean over the file's lines of this peptide of 15300.
LNPDFSRPNRKYTW [P35573 181-194] was tested, and the normalised SPOT signal, Boehringer light units (BLU); mean over the file's lines of this peptide was 1190.
LMIHPPRPPKVLGL [P39191 481-494] showed a normalised SPOT signal, Boehringer light units (BLU); mean over the file's lines of this peptide of 450.
LPGEPRRPAEIYHS [Q9P006 57-70] gave a normalised SPOT signal, Boehringer light units (BLU); mean over the file's lines of this peptide of 19.2.
LMIIIARPARLLES [Q9BYE8 416-429] showed a normalised SPOT signal, Boehringer light units (BLU); mean over the file's lines of this peptide of 335.
With LQAELRRPPPAPAQ [O94766 54-67] the normalised SPOT signal, Boehringer light units (BLU); mean over the file's lines of this peptide was 26.4.
LLPGPGRPPPPPTK [Q9UJJ7 274-288] was tested, and the normalised SPOT signal, Boehringer light units (BLU); mean over the file's lines of this peptide was 103.
In the case of LPIAFIRPFREHHI [Q9UKL1 106-119], the normalised SPOT signal, Boehringer light units (BLU); mean over the file's lines of this peptide is reported as 6760.
Work on LLYLPLKPPNMFPS [Q9H799 457-471] yielded a normalised SPOT signal, Boehringer light units (BLU); mean over the file's lines of this peptide of 28.2.
For LPQWPRRPGRRWPA [Q9Y6F2 30-43], the normalised SPOT signal, Boehringer light units (BLU); mean over the file's lines of this peptide was 820.
LQLGPSRPPTGEAL [Q9NXY3 388-402] showed a normalised SPOT signal, Boehringer light units (BLU); mean over the file's lines of this peptide of 38.
In the case of APPVLKRPILQSLL [Q14700 527-540], the normalised SPOT signal, Boehringer light units (BLU); mean over the file's lines of this peptide is reported as 39.2.
With LNSSFSRPDRPASV [P18627 187-200] the normalised SPOT signal, Boehringer light units (BLU); mean over the file's lines of this peptide was 4090.
For LPPLPHRPPQNPFV [P42694 1701-1715], the normalised SPOT signal, Boehringer light units (BLU); mean over the file's lines of this peptide was 261.
Binder LLPFPLRPPSPHSP [Q9HAF8 97-111] has a normalised SPOT signal, Boehringer light units (BLU); mean over the file's lines of this peptide of 178.
LPKHLRRPEPSKPQ [Q96M07 127-140] showed a normalised SPOT signal, Boehringer light units (BLU); mean over the file's lines of this peptide of 15.9.
LPARPRRPTPTMVP [Q13545 30-43] gave a normalised SPOT signal, Boehringer light units (BLU); mean over the file's lines of this peptide of 10700.
In the case of LPEELPRPRRPPPE [P22460 81-94], the normalised SPOT signal, Boehringer light units (BLU); mean over the file's lines of this peptide is reported as 102.
LPLPFSRPQKIYHF [O95047 163-176] gave a normalised SPOT signal, Boehringer light units (BLU); mean over the file's lines of this peptide of 428.
Binder LQKQPRRPRRWVTV [O95125 124-137] has a normalised SPOT signal, Boehringer light units (BLU); mean over the file's lines of this peptide of 2180.
Work on LQGIFTRPSKLTRQ [O43611 94-107] yielded a normalised SPOT signal, Boehringer light units (BLU); mean over the file's lines of this peptide of 324.
For LPFYFKRPPINVAI [P78346 133-146], the normalised SPOT signal, Boehringer light units (BLU); mean over the file's lines of this peptide was 16.4.

What follows are binders tested against endophilin SH3 (SH3G2_HUMAN), Q99962 (assay: SPOT array).
LPVSLTRPPKLVLH [Q9Y2E6 378-391] showed a normalised SPOT signal, Boehringer light units (BLU); mean over the file's lines of this peptide of 272.
In the case of LPKGLGRPGKGHYW [Q12946 84-97], the normalised SPOT signal, Boehringer light units (BLU); mean over the file's lines of this peptide is reported as 104.
With LPHWLRRPVYSLYI [Q9UG56 133-146] the normalised SPOT signal, Boehringer light units (BLU); mean over the file's lines of this peptide was 210.
For LPPKPARPPAVSPA [O60885 879-893], the normalised SPOT signal, Boehringer light units (BLU); mean over the file's lines of this peptide was 4260.
LPEVPEKPPAGESV [Q9NVI4 527-541] gave a normalised SPOT signal, Boehringer light units (BLU); mean over the file's lines of this peptide of 57.1.
In the case of APQPPGRPPTPGPP [Q14957 973-987], the normalised SPOT signal, Boehringer light units (BLU); mean over the file's lines of this peptide is reported as 820.
Binder LPPDIERPYKAEPL [Q9Y4U3 288-301] has a normalised SPOT signal, Boehringer light units (BLU); mean over the file's lines of this peptide of 95.9.
Work on LLYTLRRPYFRKME [P36888 164-177] yielded a normalised SPOT signal, Boehringer light units (BLU); mean over the file's lines of this peptide of 99.
LLSQLGRPFREYEL [Q9C095 450-463] was tested, and the normalised SPOT signal, Boehringer light units (BLU); mean over the file's lines of this peptide was 0.
With LPETFRRPQIDPAV [Q9UJL8 67-80] the normalised SPOT signal, Boehringer light units (BLU); mean over the file's lines of this peptide was 17.6.
LNKYLSRPKRFEVA [Q9Y648 264-277] showed a normalised SPOT signal, Boehringer light units (BLU); mean over the file's lines of this peptide of 212.
With LNRGPSRPRRQAGR [Q9NQA3 32-45] the normalised SPOT signal, Boehringer light units (BLU); mean over the file's lines of this peptide was 207.
LPENFRRPQTDQAV [Q9H8X4 102-115] gave a normalised SPOT signal, Boehringer light units (BLU); mean over the file's lines of this peptide of 40.7.
For APPRLARPPRFYEA [Q9HAH7 279-292], the normalised SPOT signal, Boehringer light units (BLU); mean over the file's lines of this peptide was 205.
LPLPPARPPVLHSS [O95098 58-72] showed a normalised SPOT signal, Boehringer light units (BLU); mean over the file's lines of this peptide of 3620.
Binder LPPLPKRPALEKTN [Q9NR56 294-307] has a normalised SPOT signal, Boehringer light units (BLU); mean over the file's lines of this peptide of 2280.
In the case of LPLPPPRPPLLSAR [Q9P0P4 137-151], the normalised SPOT signal, Boehringer light units (BLU); mean over the file's lines of this peptide is reported as 8510.
LQFRIRRPRPPARG [Q96QS4 5-18] was tested, and the normalised SPOT signal, Boehringer light units (BLU); mean over the file's lines of this peptide was 48.5.
LLPALRRPSRASSA [O95327 190-203] showed a normalised SPOT signal, Boehringer light units (BLU); mean over the file's lines of this peptide of 3500.
In the case of AAPPPAKPPPPPQP [O15399 900-914], the normalised SPOT signal, Boehringer light units (BLU); mean over the file's lines of this peptide is reported as 77.6.
LPRSPPRPPRLWSF [Q9UKB5 52-66] showed a normalised SPOT signal, Boehringer light units (BLU); mean over the file's lines of this peptide of 24000.
LNPDFSRPNRKYTW [P35573 181-194] showed a normalised SPOT signal, Boehringer light units (BLU); mean over the file's lines of this peptide of 62.4.
LMIHPPRPPKVLGL [P39191 481-494] was tested, and the normalised SPOT signal, Boehringer light units (BLU); mean over the file's lines of this peptide was 1020.
In the case of LPGEPRRPAEIYHS [Q9P006 57-70], the normalised SPOT signal, Boehringer light units (BLU); mean over the file's lines of this peptide is reported as 44.5.
Work on LMIIIARPARLLES [Q9BYE8 416-429] yielded a normalised SPOT signal, Boehringer light units (BLU); mean over the file's lines of this peptide of 167.
For LQAELRRPPPAPAQ [O94766 54-67], the normalised SPOT signal, Boehringer light units (BLU); mean over the file's lines of this peptide was 21.1.
Work on LLPGPGRPPPPPTK [Q9UJJ7 274-288] yielded a normalised SPOT signal, Boehringer light units (BLU); mean over the file's lines of this peptide of 3240.
Binder LPIAFIRPFREHHI [Q9UKL1 106-119] has a normalised SPOT signal, Boehringer light units (BLU); mean over the file's lines of this peptide of 1060.
LLYLPLKPPNMFPS [Q9H799 457-471] was tested, and the normalised SPOT signal, Boehringer light units (BLU); mean over the file's lines of this peptide was 13.3.
In the case of LPQWPRRPGRRWPA [Q9Y6F2 30-43], the normalised SPOT signal, Boehringer light units (BLU); mean over the file's lines of this peptide is reported as 7880.
LQLGPSRPPTGEAL [Q9NXY3 388-402] showed a normalised SPOT signal, Boehringer light units (BLU); mean over the file's lines of this peptide of 62.4.
APPVLKRPILQSLL [Q14700 527-540] gave a normalised SPOT signal, Boehringer light units (BLU); mean over the file's lines of this peptide of 309.
For LNSSFSRPDRPASV [P18627 187-200], the normalised SPOT signal, Boehringer light units (BLU); mean over the file's lines of this peptide was 123.
With LPPLPHRPPQNPFV [P42694 1701-1715] the normalised SPOT signal, Boehringer light units (BLU); mean over the file's lines of this peptide was 79.
LLPFPLRPPSPHSP [Q9HAF8 97-111] gave a normalised SPOT signal, Boehringer light units (BLU); mean over the file's lines of this peptide of 9850.
LPKHLRRPEPSKPQ [Q96M07 127-140] was tested, and the normalised SPOT signal, Boehringer light units (BLU); mean over the file's lines of this peptide was 12.8.
For LPARPRRPTPTMVP [Q13545 30-43], the normalised SPOT signal, Boehringer light units (BLU); mean over the file's lines of this peptide was 6910.
LPEELPRPRRPPPE [P22460 81-94] was tested, and the normalised SPOT signal, Boehringer light units (BLU); mean over the file's lines of this peptide was 150.
Binder LPLPFSRPQKIYHF [O95047 163-176] has a normalised SPOT signal, Boehringer light units (BLU); mean over the file's lines of this peptide of 680.
With LQKQPRRPRRWVTV [O95125 124-137] the normalised SPOT signal, Boehringer light units (BLU); mean over the file's lines of this peptide was 220.
LQGIFTRPSKLTRQ [O43611 94-107] gave a normalised SPOT signal, Boehringer light units (BLU); mean over the file's lines of this peptide of 210.
For LPFYFKRPPINVAI [P78346 133-146], the normalised SPOT signal, Boehringer light units (BLU); mean over the file's lines of this peptide was 73.2.
